B1: 69348 (antibody, V domains shown)
VH: QVQLVESGGGVVQPGRSLRLSCAASGFTFTTYGMHWVRQAPGKGLEWVAVIWYDGSNKYYGDSVKGRFTISRDNSKNTLYLQMNSLRVDDTAVYYCTRTHGYTRSSDGFDYWGQGTLVTVSS
VL: DIQMTQSPSSLSASVGDRVTITCRASQSIRNVLGWFQQKPGKAPQRLIYAASSLQSGVPSRFSGSGSGTEFTLTISSLQPEDFATYYCLQHNFYPLTFGGGTKVEIK
notes: Anti-hTfR antibody of the initial screen; only variable domains are tied to it
B2: 69340 (antibody, V domains shown)
VH: EVQLVESGGGLVQPGRSLRLSCAASGFTFDDKAMHWVRQVPGKGLEWISGISWNSGTIGYADSVKGRFIISRDNAKNSLYLQMNSLRAEDTALYYCAKDGDTSGWYWYGLDVWGQGTTVTVSS
VL: EIVLTQSPATLSLSPGERATLSCRASQSVSSYLAWYQQKPGQAPRLLIHDVSNRATGIPARFSGSGSGTDFTLTISSLEPEDFVVYYCQQRSDWPITFGQGTRLEIK
notes: as for B1
B3: 69331 (antibody, V domains shown)
VH: QVQLVESGGGVVQPGRSLRLSCIASGFTFSVYGIHWVRQAPGKGLEWMAVISHDGNIKHYADSVKGRFTISRDNSKNTLYLQINSLRTEDTAVYYCAKDTWNSLDTFDIWGQGTMVTVSS
VL: DIQLTQSPSSLSASVGDRVTITCWASQGISSYLAWYQQKPGKAPKLLIYAASTLQSGVPSRFSGSGSGTEFTLTISSLQPEDFATYYCQQLNSYPLTFGGGTKVEIK
notes: as for B1
B4: 69332 (antibody, V domains shown)
VH: QVTLRESGPALVKPSQTLTLTCTFSGFSLNTYGMFVSWIRQPPGKALEWLAHIHWDDDKYYSTSLKTRLTISKDTSKNQVVLTMTNMDPVDTATYYCARGHNNLNYIIHWGQGTLVTVSS
VL: AIQMTQSPSSLSASVGDRVTITCRASQGIRNDLGWYQQKPGKAPKLLIYAASTLQSGVPSRFSGSGSGTDFTLTISSLQPEDFATYYCLQDYNYPFTFGPGTKVDIK
notes: as for B1
B5: 69326 (antibody, V domains shown)
VH: EVQLVESGGGLVQPGGSLRLSCAVSGFIFSSYEMNWVRQAPGKGLEWVSYISSSGSTIFYADSVKGRFTISRDNAKNSLYLQMNSLRAEDTAVYYCVSGVVLFDVWGQGTMVTVSS
VL: EIVMTQSPATLSVSPGERATLSCRASQSVSSNFAWYQQKPGQAPRLLIYSASSRATGIPVRFSGSGSGTEFTLTISSLQSEDFAVYYCQQYNIWPRTFGQGTKVEIK
notes: as for B1

Each binder was assayed against T1, human transferrin receptor 1 (hTfR) (human, UniProt P02786 89-760, limits assumed) (assay: in vitro binding screen, method not described).
T1 construct: also called TFRC; transferrin receptor protein 1
T1 sequence (P02786 89-760 limits assumed): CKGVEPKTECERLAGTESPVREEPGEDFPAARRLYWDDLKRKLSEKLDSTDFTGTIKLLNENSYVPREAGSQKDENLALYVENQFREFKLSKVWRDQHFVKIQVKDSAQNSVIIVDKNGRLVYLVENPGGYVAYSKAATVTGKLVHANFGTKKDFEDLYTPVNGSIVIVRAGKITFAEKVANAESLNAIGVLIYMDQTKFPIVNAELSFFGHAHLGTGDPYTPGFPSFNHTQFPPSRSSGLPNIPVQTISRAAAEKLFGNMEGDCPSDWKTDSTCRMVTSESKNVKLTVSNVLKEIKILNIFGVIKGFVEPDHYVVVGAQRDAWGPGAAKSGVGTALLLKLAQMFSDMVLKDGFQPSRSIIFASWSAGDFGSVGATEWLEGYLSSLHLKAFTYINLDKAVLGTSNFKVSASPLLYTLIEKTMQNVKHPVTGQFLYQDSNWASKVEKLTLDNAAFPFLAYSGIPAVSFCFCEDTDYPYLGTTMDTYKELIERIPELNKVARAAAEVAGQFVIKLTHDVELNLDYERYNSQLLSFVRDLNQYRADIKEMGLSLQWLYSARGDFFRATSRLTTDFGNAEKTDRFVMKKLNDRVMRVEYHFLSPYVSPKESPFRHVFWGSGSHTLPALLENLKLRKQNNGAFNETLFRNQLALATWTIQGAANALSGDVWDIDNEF

Binding result, binds:
B1
B2
B3
B4
B5
